Positions count from the first letter of the chain named.

This passage reports Kd results from patent publication US20200157236A1 (CELLDEX THERAPEUTICS, published 2020).

First the molecules themselves.
B1: Ab384 (antibody, V domains shown)
VH: EVQLVQSGAEVKKPGSSVKLSCKASGYTFTSYWMHWVRQAPGQGLEWIGYIKPSSGYTKYNQKFKDKATLTADKSTSTAYMELSSLRSEDTAVYYCARDYYGSSSWFAYWGQGTLVTVSS
VL: EIVMTQSPAFMSVTVGEKVTITCKASQNVGTNVAWYQQKPDQSPKALIYSASYRYSGVPSRFSGSGSGTDFTLTISSLEAEDAATYYCQQYNSYPYMYTFGQGTKLEIK
notes: humanized
B2: Ab420 (antibody, V domains shown)
VH: B1 VH
VL: EIVMTQSQATLSTSPGERATLSCKASQNVGTNVAWYQQKPGQAPRALIYSASYRYSGVPARFSGSGSGTDFTLTISSVEPEDFAVYYCQQYNSYPYMYTFGQGTKLEIK
notes: humanized
B3: Ab361 (antibody, V domains shown)
VH: B1 VH with L20V, T30S
VL: B1 VL with M11L, V15P, S43A
notes: humanized
B4: Ab363 (antibody, V domains shown)
VH: B1 VH with E1Q, K12A, S16T, R38K, A68V
VL: B1 VL with E1D, P8Q, S43A
notes: humanized
B5: Ab351 (antibody, V domains shown)
VH: B1 VH with E1Q, K12A, S16T, R38K, A68V
VL: B1 VL with M11L, V15P, S43A
notes: humanized
B6: Ab359 (antibody, V domains shown)
VH: B1 VH with E1Q, K12A, R38K
VL: B1 VL with M11L, V15P, S43A
notes: humanized
B7: Ab389 (antibody, V domains shown)
VH: B1 VH with S16T, Y32S, W33A, H35Q, R38K
VL: B2 VL with Q8P
notes: humanized
B8: Ab354 (antibody, V domains shown)
VH: B1 VH with S16T, P41R, G44R, N61A, K65Q, D66E, K67R, A68V
VL: B1 VL with M11L, V15P, S43A
notes: humanized
B9: Ab371 (antibody, V domains shown)
VH: B1 VH with E1Q, K12A, R38K
VL: B1 VL with E1D, P8Q, S43A
notes: humanized
B10: Ab387 (antibody, V domains shown)
VH: B1 VH with E1Q, K12A, S16T, R38K, A68V
VL: B2 VL with Q8P
notes: humanized
B11: Ab368 (antibody, V domains shown)
VH: B1 VH with S16A, S84R, E89D
VL: B1 VL with E1D, P8Q, S43A
notes: humanized
B12: Ab357 (antibody, V domains shown)
VH: B1 VH with K12A, S16A, S84R, E89D
VL: B1 VL with M11L, V15P, S43A
notes: humanized
B13: Ab362 (antibody, V domains shown)
VH: B1 VH with T30S, R38K, N61A, K65Q, D66G, K67R, A68V
VL: B1 VL with M11L, V15P, S43A
notes: humanized
B14: Ab367 (antibody, V domains shown)
VH: B1 VH with E1Q, K12A, S16A, R38K, S84R, E89D
VL: B1 VL with E1D, P8Q, S43A
notes: humanized
B15: Ab360 (antibody, V domains shown)
VH: B1 VH
VL: B1 VL with M11L, V15P, S43A
notes: humanized
B16: Ab379 (antibody, V domains shown)
VH: B1 VH with E1Q, K12A, S16A, R38K, S84R, E89D
VL: B1 VL
notes: humanized
B17: Ab356 (antibody, V domains shown)
VH: B1 VH with S16A, S84R, E89D
VL: B1 VL with M11L, V15P, S43A
notes: humanized
B18: Ab381 (antibody, V domains shown)
VH: B1 VH with K12A, S16A, S84R, E89D
VL: B1 VL
notes: humanized
B19: Ab365 (antibody, V domains shown)
VH: B1 VH with S16T, Y32S, W33A, H35Q, R38K
VL: B1 VL with E1D, P8Q, S43A
notes: humanized
B20: Ab383 (antibody, V domains shown)
VH: B1 VH with E1Q, K12A, R38K
VL: B1 VL
notes: humanized
B21: Ab380 (antibody, V domains shown)
VH: B1 VH with S16A, S84R, E89D
VL: B1 VL
notes: humanized
B22: Ab366 (antibody, V domains shown)
VH: B1 VH with S16T, P41R, G44R, N61A, K65Q, D66E, K67R, A68V
VL: B1 VL with E1D, P8Q, S43A
notes: humanized
B23: Ab386 (antibody, V domains shown)
VH: B1 VH with T30S, R38K, N61A, K65Q, D66G, K67R, A68V
VL: B1 VL
notes: humanized
B24: Ab375 (antibody, V domains shown)
VH: B1 VH with E1Q, K12A, S16T, R38K, A68V
VL: B1 VL
notes: humanized
B25: Ab385 (antibody, V domains shown)
VH: B1 VH with L20V, T30S
VL: B1 VL
notes: humanized
B26: Ab376 (antibody, V domains shown)
VH: B1 VH with A9P, S16T, P41R, G44R, K67R
VL: B1 VL
notes: humanized
B27: Ab378 (antibody, V domains shown)
VH: B1 VH with S16T, P41R, G44R, N61A, K65Q, D66E, K67R, A68V
VL: B1 VL
notes: humanized
B28: Ab353 (antibody, V domains shown)
VH: B1 VH with S16T, Y32S, W33A, H35Q, R38K
VL: B1 VL with M11L, V15P, S43A
notes: humanized
B29: Ab373 (antibody, V domains shown)
VH: B1 VH with L20V, T30S
VL: B1 VL with E1D, P8Q, S43A
notes: humanized
B30: Ab358 (antibody, V domains shown)
VH: B1 VH with S16A, N61A, F64L, K65Q, D66G, K67R, A68V, S84R, E89D
VL: B1 VL with M11L, V15P, S43A
notes: humanized
B31: Ab372 (antibody, V domains shown)
VH: B1 VH
VL: B1 VL with E1D, P8Q, S43A
notes: humanized
B32: Ab388 (antibody, V domains shown)
VH: B1 VH with A9P, S16T, P41R, G44R, K67R
VL: B2 VL with Q8P
notes: humanized
B33: Ab364 (antibody, V domains shown)
VH: B1 VH with A9P, S16T, P41R, G44R, K67R
VL: B1 VL with E1D, P8Q, S43A
notes: humanized
B34: Ab377 (antibody, V domains shown)
VH: B1 VH with S16T, Y32S, W33A, H35Q, R38K
VL: B1 VL
notes: humanized
B35: Ab370 (antibody, V domains shown)
VH: B1 VH with S16A, N61A, F64L, K65Q, D66G, K67R, A68V, S84R, E89D
VL: B1 VL with E1D, P8Q, S43A
notes: humanized
B36: Ab369 (antibody, V domains shown)
VH: B1 VH with K12A, S16A, S84R, E89D
VL: B1 VL with E1D, P8Q, S43A
notes: humanized
B37: Ab382 (antibody, V domains shown)
VH: B1 VH with S16A, N61A, F64L, K65Q, D66G, K67R, A68V, S84R, E89D
VL: B1 VL
notes: humanized
B38: Ab374 (antibody, V domains shown)
VH: B1 VH with T30S, R38K, N61A, K65Q, D66G, K67R, A68V
VL: B1 VL with E1D, P8Q, S43A
notes: humanized

The target in the test is T1, purified ALK protein (BLitz, Table 20) (Homo sapiens (Human), UniProt Q9UM73 19-1038, limits assumed).
T1 construct: also called purified ALK proteins
T1 sequence (Q9UM73 19-1038 limits assumed): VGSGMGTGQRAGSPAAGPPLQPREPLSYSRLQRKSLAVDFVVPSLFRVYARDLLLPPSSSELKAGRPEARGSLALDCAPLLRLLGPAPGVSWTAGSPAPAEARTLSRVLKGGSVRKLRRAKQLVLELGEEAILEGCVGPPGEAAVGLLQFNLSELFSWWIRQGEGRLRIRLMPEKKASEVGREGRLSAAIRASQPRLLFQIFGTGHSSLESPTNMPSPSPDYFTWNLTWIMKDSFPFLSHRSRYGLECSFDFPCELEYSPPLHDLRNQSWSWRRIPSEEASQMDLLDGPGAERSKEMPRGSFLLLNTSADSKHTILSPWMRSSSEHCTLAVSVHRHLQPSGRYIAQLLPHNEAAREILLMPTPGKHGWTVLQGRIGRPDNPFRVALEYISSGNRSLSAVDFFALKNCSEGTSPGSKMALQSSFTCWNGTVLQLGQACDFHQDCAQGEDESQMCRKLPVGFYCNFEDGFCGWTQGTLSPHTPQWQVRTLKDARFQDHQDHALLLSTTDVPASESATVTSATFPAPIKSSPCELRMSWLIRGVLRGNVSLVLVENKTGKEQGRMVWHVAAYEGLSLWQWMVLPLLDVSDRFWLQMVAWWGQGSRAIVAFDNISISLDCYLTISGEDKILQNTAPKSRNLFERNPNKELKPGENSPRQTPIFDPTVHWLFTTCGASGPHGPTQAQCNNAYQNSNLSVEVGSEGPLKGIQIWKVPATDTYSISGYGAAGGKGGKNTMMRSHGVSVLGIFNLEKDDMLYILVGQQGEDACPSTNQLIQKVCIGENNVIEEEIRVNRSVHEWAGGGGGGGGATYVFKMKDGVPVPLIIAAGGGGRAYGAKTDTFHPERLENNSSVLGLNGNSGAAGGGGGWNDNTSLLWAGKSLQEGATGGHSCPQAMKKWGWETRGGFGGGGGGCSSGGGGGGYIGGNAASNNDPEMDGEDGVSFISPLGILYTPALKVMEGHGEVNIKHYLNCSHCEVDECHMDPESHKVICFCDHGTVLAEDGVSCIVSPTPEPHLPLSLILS
Briefly: BLI (BLitz), mAb on Protein A tip, purified ALK in solution. The procedure: Kinetic measurements of the monovalent affinity of the 96 humanized ALK antibody variants (Ab351-Ab446) were collected. Affinity ranking was performed using a BLitz® System (ForteBio, Menlo Park, Calif.). Humanized anti-ALK antibodies were immobilized at 0.5 mg/mL using Protein A tips. Once baseline stability was ensured, purified ALK proteins at 70 μg/mL were added. The resulting kinetic data were fit to a single binding site equation, from which the quoted monovalent KD values were derived.
For the molecule B1, the Kd (in general, the constant that tells how readily two partners part at equilibrium) was found to be 201 nM.

In the case of B2, the Kd was determined as 233 nM.

B3: binding was characterised by a dissociation constant (Kd) of 153 nM.

B4 showed a Kd of 119 nM.

On to B5, for which binding was put at a Kd of 120 nM.

Molecule B6 returned a Kd of 100 nM.

With B7, the affinity, expressed as Kd, was 1550 nM.

The molecule B8 yielded a Kd of 133 nM.

Turning to B9, binding was characterised by a dissociation constant (Kd) of 130 nM.

With B10, the affinity, expressed as Kd, was 158 nM.

B11: the Kd came out at 198 nM.

Turning to B12, binding was put at a Kd of 147 nM.

In the case of B13, the Kd is 149 nM.

In turn, B14 gave a Kd of 114 nM.

As for B15, binding was put at a Kd of 137 nM.

As for B16, binding was characterised by a dissociation constant (Kd) of 118 nM.

In turn, B17 came in with a Kd of 128 nM.

B18 registered a Kd of 180 nM.

Molecule B19 came in with a Kd of 1490 nM.

In turn, B20 displayed a Kd of 132 nM.

With B21, binding was put at a Kd of 141 nM.

Molecule B22 had a Kd of 219 nM.

On to B23, for which the affinity, expressed as Kd, was 257 nM.

As for B24, the Kd stood at 140 nM.

Consider B25, for which the dissociation constant Kd was determined as 626 nM.

Turning to B26, binding was characterised by a dissociation constant (Kd) of 103 nM.

For the molecule B27, the Kd worked out at 167 nM.

Regarding B28, the Kd came to 384 nM.

For B29, the Kd was 280 nM.

B30 showed a Kd of 118 nM.

Take B31: binding was put at a Kd of 188 nM.

The molecule B32 showed a Kd of 108 nM.

B33 gave a Kd of 128 nM.

For the molecule B34, the Kd was found to be 927 nM.

The molecule B35 registered a Kd of 2530 nM.

Regarding B36, the affinity, expressed as Kd, was 210 nM.

The molecule B37 showed a Kd of 141 nM.

As to B38, the Kd was 253 nM.
